Patent US6969760

Columns and labels:
[1] = molecular target: IFN-γ receptor on 2C4 and mutant γ-1 cells (human HT1080-derived) (human) (UniProt P15260); assay: binding of 125I-labeled IFN-γ diluted to a lower specific activity, cells at 0° C.
[2] = molecular target: IFN-γ receptor on 2C4 and mutant γ-1 cells (human HT1080-derived) (human) (UniProt P15260); assay: binding of 125I-labeled IFN-γ to 10^6 2C4 or γ-1 cells, 90 min at 0° C., non-specific binding subtracted

receptors per cell (saturation binding) (receptors per cell) [1]: 10000
receptors per cell (specific binding at the highest IFN-γ concentration) (receptors per cell) [2]: 6000
Substance: 125I-labeled human IFN-γ (from UniProt P01579 24-166) (ligand)
